Assay results: US20200054723A1 (ALLAKOS, published 2020)

Assays:
[1] = target: human Siglec-8 on human cells (eosinophils, mast cells) (human, UniProt Q9NYZ4 17-499); test: cell-based or functional assay
[2] = target: T1, Siglec-8-Fc tagged protein (human Siglec-8 extracellular domain fused to an immunoglobulin Fc region) (human); test: BLI (Octet Red 384), Siglec-8-Fc on anti-human capture sensors, Fab in solution
T1 construct: also called Siglec-8 Fc fusion protein
Method: Antibody affinity determination was also carried out by bio-layer interferometry (ForteBio). Binding of mouse, chimeric and humanized anti-Siglec-8 antibody Fab fragments to human Siglec-8 protein was measured on a ForteBio Octet Red 384. The assay was conducted at 25° C., at an RPM of 1000 in assay buffer. […] Fab fragments (antibodies were digested with Thermo-Pierce immobilized papain per manufacturer's specifications) were diluted in assay buffer from 50 nM to 1.56 nM with 2× dilutions. The Siglec-8-Fc tagged protein was immobilized on Anti-Human-Capture sensors at 100 nM in assay buffer for 3 min to a change in nm of approximately 1.2. Two-minute associations were conducted, followed by 10-minute dissociations. Results were blanked with an empty reference AHC sensor, and analyzed in ForteBio analysis software with 1:1 global fit parameters.

[3] = target: T2, recombinant human Siglec-8 extracellular domain (ECD) (human, UniProt Q9NYZ4 17-363); test: ELISA, coated Siglec-8 ECD
T2 construct: extracellular domain; also called Siglec-8 ECD; full Siglec-8 ECD
T2 sequence (Q9NYZ4 17-363): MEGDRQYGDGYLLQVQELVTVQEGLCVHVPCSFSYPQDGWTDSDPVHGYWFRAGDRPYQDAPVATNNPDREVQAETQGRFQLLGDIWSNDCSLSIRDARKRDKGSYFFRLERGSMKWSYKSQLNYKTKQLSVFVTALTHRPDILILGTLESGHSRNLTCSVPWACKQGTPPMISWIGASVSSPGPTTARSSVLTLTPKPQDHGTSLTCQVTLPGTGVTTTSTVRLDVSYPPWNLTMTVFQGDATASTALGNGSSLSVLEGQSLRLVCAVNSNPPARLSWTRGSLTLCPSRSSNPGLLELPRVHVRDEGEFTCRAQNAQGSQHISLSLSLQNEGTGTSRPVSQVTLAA

human Siglec-8 on human cells (eosinophils, mast cells), sequence (Q9NYZ4 17-499): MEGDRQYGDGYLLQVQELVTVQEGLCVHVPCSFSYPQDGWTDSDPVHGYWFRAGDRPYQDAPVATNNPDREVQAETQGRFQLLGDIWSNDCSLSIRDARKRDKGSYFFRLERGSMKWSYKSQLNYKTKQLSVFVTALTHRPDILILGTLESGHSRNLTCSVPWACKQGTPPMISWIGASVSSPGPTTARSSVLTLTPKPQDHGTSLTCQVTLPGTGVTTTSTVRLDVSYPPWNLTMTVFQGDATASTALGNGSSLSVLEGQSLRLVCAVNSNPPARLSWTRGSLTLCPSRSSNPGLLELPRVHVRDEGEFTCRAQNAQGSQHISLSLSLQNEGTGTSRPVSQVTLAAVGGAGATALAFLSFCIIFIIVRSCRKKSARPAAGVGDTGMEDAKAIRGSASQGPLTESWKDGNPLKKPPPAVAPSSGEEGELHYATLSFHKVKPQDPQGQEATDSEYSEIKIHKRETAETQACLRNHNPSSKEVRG
T1 sequence (chain, as listed by the source limits assumed): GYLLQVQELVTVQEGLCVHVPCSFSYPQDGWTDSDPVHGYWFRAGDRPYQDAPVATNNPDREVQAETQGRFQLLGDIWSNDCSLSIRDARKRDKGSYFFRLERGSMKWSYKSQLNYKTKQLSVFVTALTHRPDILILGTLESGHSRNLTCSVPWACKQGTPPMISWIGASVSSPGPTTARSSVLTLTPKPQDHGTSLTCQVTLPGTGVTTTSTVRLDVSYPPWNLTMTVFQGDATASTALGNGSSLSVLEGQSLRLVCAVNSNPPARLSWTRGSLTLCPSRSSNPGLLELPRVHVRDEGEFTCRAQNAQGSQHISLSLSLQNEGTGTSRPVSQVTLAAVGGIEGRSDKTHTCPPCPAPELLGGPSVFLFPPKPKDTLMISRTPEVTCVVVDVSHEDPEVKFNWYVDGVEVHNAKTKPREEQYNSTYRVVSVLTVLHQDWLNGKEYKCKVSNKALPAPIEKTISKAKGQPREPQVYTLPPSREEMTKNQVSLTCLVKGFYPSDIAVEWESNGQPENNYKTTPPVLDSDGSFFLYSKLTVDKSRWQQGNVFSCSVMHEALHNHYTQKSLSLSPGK

Mean EC50 (ng/ml) for eosinophil depletion [1] | Kd [2] | koff [2] | kon [2] | EC50 [3] | Binder
3.9 ng/mL |  |  |  |  | HEKA IgG4 antibody (antibody) heavy: not shown light: EIVLTQSPATLSLSPGERATLSCSATSSVSYMHWFQQKPGQAPRLLIYSTSNLASGIPARFSGSGSGTDFTLTISSLEPEDFAVYYCQQRSSYPFTFGPGTKLDIKRTVAAPSVFIFPPSDEQLKSGTASVVCLLNNFYPREAKVQWKVDNALQSGNSQESVTEQDSKDSTYSLSSTLTLSKADYEKHKVYACEVTHQGLSSPVTKSFNRGEC
 | 464 pM | 0.000482 s⁻¹ | 1.04e+06 M⁻¹ s⁻¹ |  | HEKA Fab fragment (Fab, Fab made by papain digestion) VH: EVQLVESGGGLVQPGGSLRLSCAASGFSLTIYGAHWVRQAPGKGLEWVGVIWAGGSTNYNSALMSRFTISKDNSKNTVYLQMNSLRAEDTAVYYCARDGSSPYYYSMEYWGQGTTVTVSS light: EIVLTQSPATLSLSPGERATLSCSATSSVSYMHWFQQKPGQAPRLLIYSTSNLASGIPARFSGSGSGTDFTLTISSLEPEDFAVYYCQQRSSYPFTFGPGTKLDIKRTVAAPSVFIFPPSDEQLKSGTASVVCLLNNFYPREAKVQWKVDNALQSGNSQESVTEQDSKDSTYSLSSTLTLSKADYEKHKVYACEVTHQGLSSPVTKSFNRGEC
 | 592 pM | 0.000545 s⁻¹ | 920000 M⁻¹ s⁻¹ |  | HEKF Fab fragment (Fab, Fab made by papain digestion) VH: EVQLVESGGGLVQPGGSLRLSCAASGFSLTIYGAHWVRQAPGKGLEWVGVIWAGGSTNYNSALMSRFTISKDNSKNTVYLQMNSLRAEDTAVYYCARDGSSPYYYSMEYWGQGTTVTVSS light: EIVLTQSPATLSLSPGERATLSCSATSSVSYMHWFQQKPGQAPRLLIYSTSNLASGIPARFSGSGSGTDYTLTISSLEPEDFAVYYCQQRSSYPFTFGPGTKLDIKRTVAAPSVFIFPPSDEQLKSGTASVVCLLNNFYPREAKVQWKVDNALQSGNSQESVTEQDSKDSTYSLSSTLTLSKADYEKHKVYACEVTHQGLSSPVTKSFNRGEC
 | 585 pM | 0.000556 s⁻¹ | 951000 M⁻¹ s⁻¹ |  | chimeric 2E2 Fab fragment (Fab, Fab made by papain digestion of the human IgG1 chimeric antibody) VH: QVQLKESGPGLVAPSQSLSITCTVSGFSLTIYGAHWVRQPPGKGLEWLGVIWAGGSTNYNSALMSRLSISKDNSKSQVFLKINSLQTDDTALYYCARDGSSPYYYSMEYWGQGTSVTVSS light: QIILTQSPAIMSASPGEKVSITCSATSSVSYMHWFQQKPGTSPKLWIYSTSNLASGVPVRFSGSGSGTSYSLTISRMEAEDAATYYCQQRSSYPFTFGSGTKLEIKRTVAAPSVFIFPPSDEQLKSGTASVVCLLNNFYPREAKVQWKVDNALQSGNSQESVTEQDSKDSTYSLSSTLTLSKADYEKHKVYACEVTHQGLSSPVTKSFNRGEC
43.3 ng/mL |  |  |  |  | HEKAmut IgG1 antibody (antibody, V domains shown) VH: EVQLVESGGGLVQPGGSLRLSCAASGFSLTIYGAHWVRQAPGKGLEWVGVIWAGGSTNYNSALMSRFTISKDNSKNTVYLQMNSLRAEDTAVYYCARDGSSPYYYSMEYWGQGTTVTVSS VL: EIVLTQSPATLSLSPGERATLSCSATSSVSYMHWFQQKPGQAPRLLIYSTSNLASGIPARFSGSGSGTDFTLTISSLEPEDFAVYYCQQRSSYPYTFGPGTKLDIK
6.9 ng/mL |  |  |  | 72 pM | HEKFmut (antibody, human IgG1, V domains shown, human IgG1/kappa; also called HEKFmut IgG1) VH: EVQLVESGGGLVQPGGSLRLSCAASGFSLTIYGAHWVRQAPGKGLEWVGVIWAGGSTNYNSALMSRFTISKDNSKNTVYLQMNSLRAEDTAVYYCARDGSSPYYYSMEYWGQGTTVTVSS VL: EIVLTQSPATLSLSPGERATLSCSATSSVSYMHWFQQKPGQAPRLLIYSTSNLASGIPARFSGSGSGTDYTLTISSLEPEDFAVYYCQQRSSYPYTFGPGTKLDIK
